Columns and labels:
[1] = target: T1, phthalate dioxygenase (PDO) (Comamonas testosteroni, UniProt B7WQT1); assay: LC-MS product detection; assay type: biochemical; conditions: VanB reductase, 2 mM substrate, 500 µM NADH, 100 µM ferrous ammonium sulfate, 30 °C
T1 construct: gene CtesDRAFT_PD2022; codon-optimized, MBP tag removed with TEV protease, pMCSG9, E. coli C41(DE3); authors use structure PDB 7V25 (earlier work) for PDO residues
T1 sequence (B7WQT1 1-439): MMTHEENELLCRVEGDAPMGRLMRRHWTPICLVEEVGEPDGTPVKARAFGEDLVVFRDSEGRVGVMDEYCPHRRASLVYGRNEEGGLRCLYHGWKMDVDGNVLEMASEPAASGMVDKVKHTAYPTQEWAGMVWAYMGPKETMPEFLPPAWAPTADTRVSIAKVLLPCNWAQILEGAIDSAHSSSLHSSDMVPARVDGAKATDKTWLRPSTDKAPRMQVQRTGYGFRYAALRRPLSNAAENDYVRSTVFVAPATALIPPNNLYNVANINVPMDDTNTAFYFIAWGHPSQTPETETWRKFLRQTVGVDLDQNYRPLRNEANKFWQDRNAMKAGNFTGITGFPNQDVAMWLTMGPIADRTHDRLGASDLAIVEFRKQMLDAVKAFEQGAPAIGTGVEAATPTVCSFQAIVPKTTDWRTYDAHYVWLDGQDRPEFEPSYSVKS

[2] = substrate: O=C(O)c1ccc(O)cc1; assay: purified protein; conditions: apparent; VanB reductase (4:1), 500 µM NADH, O2, 100 µM ferrous ammonium sulfate
[3] = substrate: Cc1ccc(C(=O)O)cc1; assay: purified protein; conditions: apparent; VanB reductase (4:1), 500 µM NADH, O2, 100 µM ferrous ammonium sulfate
[4] = substrate: O=C(O)c1ccccc1; assay: LC-MS product formation, Michaelis-Menten; assay type: biochemical, Comamonas testosteroni; conditions: apparent; VanB reductase (4:1), 500 µM NADH, O2, 100 µM ferrous ammonium sulfate
Source text: (§1) LC-MS product formation, Michaelis-Menten on TsaM (p-toluenesulfonate methyl-monooxygenase)

[5] = substrate: CCc1ccc(C(=O)O)cc1; assay: LC-MS product formation, Michaelis-Menten; assay type: biochemical, Comamonas testosteroni; conditions: apparent; VanB reductase (4:1), 500 µM NADH, O2, 100 µM ferrous ammonium sulfate
Source text: as §1

[6] = substrate: CC(C)c1ccc(C(=O)O)cc1; assay: LC-MS product formation, Michaelis-Menten; assay type: biochemical, Comamonas testosteroni; conditions: apparent; VanB reductase (4:1), 500 µM NADH, O2, 100 µM ferrous ammonium sulfate
Source text: as §1

[7] = substrate: Cc1ccc(N)cc1; assay: LC-MS product formation, Michaelis-Menten; assay type: biochemical, Comamonas testosteroni; conditions: apparent; VanB reductase (4:1), 500 µM NADH, O2, 100 µM ferrous ammonium sulfate
Source text: as §1

[8] = substrate: O=S(=O)(O)c1ccc(O)cc1; assay: LC-MS product formation, Michaelis-Menten; assay type: biochemical, Comamonas testosteroni; conditions: apparent; VanB reductase (4:1), 500 µM NADH, O2, 100 µM ferrous ammonium sulfate
Source text: as §1

[9] = substrate: CNc1ccc(C(=O)O)cc1; assay: LC-MS product formation, Michaelis-Menten; assay type: biochemical, Comamonas testosteroni; conditions: apparent; VanB reductase (4:1), 500 µM NADH, O2, 100 µM ferrous ammonium sulfate
Source text: as §1

[10] = substrate: Cc1ccc(S(=O)(=O)O)cc1; assay: LC-MS product formation, Michaelis-Menten; assay type: biochemical, Comamonas testosteroni; conditions: apparent; VanB reductase (4:1), 500 µM NADH, O2, 100 µM ferrous ammonium sulfate
Source text: as §1

[11] = substrate: COc1ccc(C(=O)O)cc1; assay: LC-MS product formation, Michaelis-Menten; assay type: biochemical, Comamonas testosteroni; conditions: apparent; VanB reductase (4:1), 500 µM NADH, O2, 100 µM ferrous ammonium sulfate
Source text: as §1

[12] = substrate: CSc1ccc(C(=O)O)cc1; assay: LC-MS product formation, Michaelis-Menten; assay type: biochemical, Comamonas testosteroni; conditions: apparent; VanB reductase (4:1), 500 µM NADH, O2, 100 µM ferrous ammonium sulfate
Source text: as §1

[13] = substrate: O=S(=O)(O)c1ccccc1; assay: LC-MS product formation, Michaelis-Menten; assay type: biochemical, Comamonas testosteroni; conditions: apparent; VanB reductase (4:1), 500 µM NADH, O2, 100 µM ferrous ammonium sulfate
Source text: as §1

[14] = substrate: Cc1cccc(C(=O)O)c1; assay: LC-MS product formation, Michaelis-Menten; assay type: biochemical, Comamonas testosteroni; conditions: apparent; VanB reductase (4:1), 500 µM NADH, O2, 100 µM ferrous ammonium sulfate
Source text: as §1

[15] = substrate: Cc1ccc([N+](=O)[O-])cc1; assay: LC-MS product formation, Michaelis-Menten; assay type: biochemical, Comamonas testosteroni; conditions: apparent; VanB reductase (4:1), 500 µM NADH, O2, 100 µM ferrous ammonium sulfate
Source text: as §1

With O=C(O)c1ccccc1 [compound 38, benzoate] the LC-MS product detection [1] was “PDO-VanB system catalyzes a dioxygenation reaction to transform benzoate”.

B1: TsaM (p-toluenesulfonate methyl-monooxygenase) (Comamonas testosteroni) (protein)
chain: MFIRNCWYVAAWDTEIPAEGLFHRTLLNEPVLLYRDTQGRVVALENRCCHRSAPLHIGRQEGDCVRCLYHGLKFNPSGACVEIPGQEQIPPKTCIKSYPVVERNRLVWIWMGDPARANPDDIVDYFWHDSPEWRMKPGYIHYQANYKLIVDNLLDFTHLAWVHPTTLGTDSAASLKPVIERDTTGTGKLTITRWYLNDDMSNLHKGVAKFEGKADRWQIYQWSPPALLRMDTGSAPTGTGAPEGRRVPEAVQFRHTSIQTPETETTSHYWFCQARNFDLDDEALTEKIYQGVVVAFEEDRTMIEAHEKILSQVPDRPMVPIAADAGLNQGRWLLDRLLKAENGGTAP
notes: codon-optimized, N-terminal His-tag with TEV site, E. coli C41(DE3), trimer ~120 kDa; assayed with VanB as non-native reductase
For B1, the Km [2] was 86 ± 2.1 µM, the Vmax [2] was 1 µM/min and the kcat [2] was 0.00833 s⁻¹. It also gave a kcat/Km [2] of 98 M⁻¹ s⁻¹, a Km [3] of 13 ± 1.3 µM and a Vmax [3] of 11 µM/min. The kcat [3] was 0.0933 s⁻¹, the kcat/Km [3] was 7200 M⁻¹ s⁻¹ and the Km [4] was 80 ± 1.5 µM. The Vmax [4] was 1 µM/min, the kcat [4] was 0.00867 ± 0.00217 s⁻¹ and the kcat/Km [4] was 99 ± 20 M⁻¹ s⁻¹. For the same molecule, the Km [5] was 65 ± 3.8 µM, the Vmax [5] was 7.3 µM/min and the kcat [5] was 0.06 ± 0.00567 s⁻¹. For the same molecule, the kcat/Km [5] was 930 ± 95 M⁻¹ s⁻¹, the Km [6] was 150 ± 6.5 µM and the Vmax [6] was 4.1 µM/min. The kcat [6] was 0.035 ± 0.00433 s⁻¹, the kcat/Km [6] was 230 ± 24 M⁻¹ s⁻¹ and the Km [7] was 110 ± 7.7 µM. For the same molecule, the Vmax [7] was 3.2 µM/min, the kcat [7] was 0.0267 ± 0.00233 s⁻¹ and the kcat/Km [7] was 230 ± 21 M⁻¹ s⁻¹. The Km [8] was 80 ± 2.8 µM, the Vmax [8] was 1.3 µM/min and the kcat [8] was 0.011 ± 0.00167 s⁻¹. It also gave a kcat/Km [8] of 130 ± 22 M⁻¹ s⁻¹, a Km [9] of 240 ± 11 µM and a Vmax [9] of 3.2 µM/min. For the same molecule, the kcat [9] was 0.0267 ± 0.00217 s⁻¹, the kcat/Km [9] was 110 ± 8.8 M⁻¹ s⁻¹ and the Km [10] was 3.8 ± 0.60 µM. The Vmax [10] was 6.2 µM/min, the kcat [10] was 0.05 ± 0.00367 s⁻¹ and the kcat/Km [10] was 13000 ± 2200 M⁻¹ s⁻¹. It also gave a Km [11] of 180 ± 8.9 µM, a Vmax [11] of 3.3 µM/min and a kcat [11] of 0.0267 ± 0.00417 s⁻¹. For the same molecule, the kcat/Km [11] was 150 ± 20 M⁻¹ s⁻¹, the Km [12] was 240 ± 2.5 µM and the Vmax [12] was 2.6 µM/min. The kcat [12] was 0.0217 ± 0.00267 s⁻¹, the kcat/Km [12] was 88 ± 14 M⁻¹ s⁻¹ and the Km [13] was 76 ± 3.6 µM. The Vmax [13] was 1.1 µM/min, the kcat [13] was 0.00967 ± 0.00333 s⁻¹ and the kcat/Km [13] was 120 ± 47 M⁻¹ s⁻¹. For the same molecule, the Km [14] was 100 ± 4.2 µM, the Vmax [14] was 3.1 µM/min and the kcat [14] was 0.0267 ± 0.00617 s⁻¹. The kcat/Km [14] was 260 ± 50 M⁻¹ s⁻¹, the Km [15] was 230 ± 12 µM and the Vmax [15] was 2.9 µM/min. The kcat [15] was 0.0233 ± 0.00417 s⁻¹ and the kcat/Km [15] was 100 ± 16 M⁻¹ s⁻¹.
